From US20210388102A1 (IMMUNOGEN, published 2021)
Residue numbers refer to the chain shown, from its start. In names and notes the source's numbering stands.

T1: cynomolgus monkey ADAM9 (cynoADAM9) on cells (cynomolgus monkey, UniProt Q13443 206-819 (human entry))
T1 construct: also called Cho-K/cynoADAM9 clone 2; Cho-K/cynoADAM9 clone #16
T1 chain: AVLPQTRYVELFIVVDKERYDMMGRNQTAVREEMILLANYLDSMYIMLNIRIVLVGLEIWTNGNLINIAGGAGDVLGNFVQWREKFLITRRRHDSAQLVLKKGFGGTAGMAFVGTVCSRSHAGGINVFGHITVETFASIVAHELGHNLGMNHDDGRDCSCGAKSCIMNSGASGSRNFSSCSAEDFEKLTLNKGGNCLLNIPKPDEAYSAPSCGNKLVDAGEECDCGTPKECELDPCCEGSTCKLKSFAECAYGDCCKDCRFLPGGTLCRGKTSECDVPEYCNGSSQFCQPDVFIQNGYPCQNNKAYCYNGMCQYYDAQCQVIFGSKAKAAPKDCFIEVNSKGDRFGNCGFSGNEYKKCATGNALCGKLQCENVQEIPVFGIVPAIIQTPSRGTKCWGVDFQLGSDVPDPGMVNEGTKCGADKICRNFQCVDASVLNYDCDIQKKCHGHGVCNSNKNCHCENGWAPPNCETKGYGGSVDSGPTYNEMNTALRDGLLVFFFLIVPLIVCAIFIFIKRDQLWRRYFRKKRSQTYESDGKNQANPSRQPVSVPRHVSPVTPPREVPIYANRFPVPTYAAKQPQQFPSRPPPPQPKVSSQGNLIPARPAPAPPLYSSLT

T2: human ADAM9 (huADAM9) on cells (human, UniProt Q13443 206-819)
T2 sequence: T1 chain with A69V, H130Q, D421G, I441V, R521S, V546G, P569A

B1: hMAB-A(2I.2)-sSPDB-DM4 (antibody, human IgG1, kappa)
heavy: not shown
light: DIVMTQSPDSLAVSLGERATISCKASQSVDYSGDSYMNWYQQKPGQPPKLLIYAASDLESGIPARFSGSGSGTDFTLTISSLEPEDFATYYCQQSHEDPFTFGQGTKLEIKRTVAAPSVFIFPPSDEQLKSGTASVVCLLNNFYPREAKVQWKVDNALQSGNSQESVTEQDSKDSTYSLSSTLTLSKADYEKHKVYACEVTHQGLSSPVTKSFNRGEC
modifications: lysine-linked DM4, sites not given; DM4 linked through sulfo-SPDB to lysine residues of the antibody, sites not given; average 3.5 mol DM4/mol antibody
B2: hMAB-A(2.2)-sSPDB-DM4 (antibody, human IgG1, kappa, V domains shown)
VH: EVQLVESGGGLVKPGGSLRLSCAASGFTFSSYWMHWVRQAPGKGLEWVGEIIPIFGHTNYNEKFKSRFTISLDNSKNTLYLQMGSLRAEDTAVYYCARGGYYYYGSRDYFDYWGQGTTVTVSS
VL: DIVMTQSPDSLAVSLGERATISCKASQSVDYSGDSYMNWYQQKPGQPPKLLIYAASDLESGIPARFSGSGSGTDFTLTISSLEPEDFATYYCQQSHEDPFTFGQGTKLEIKR
modifications: lysine-linked DM4, sites not given; DM4 linked through sulfo-SPDB to lysine residues of the antibody, sites not given; average 3.2 mol DM4/mol antibody
notes: also called huMAB-A(2.2)-sSPDB-DM4
B3: hMAB-A(2I.2)-S442C-DGN549 (antibody)
heavy: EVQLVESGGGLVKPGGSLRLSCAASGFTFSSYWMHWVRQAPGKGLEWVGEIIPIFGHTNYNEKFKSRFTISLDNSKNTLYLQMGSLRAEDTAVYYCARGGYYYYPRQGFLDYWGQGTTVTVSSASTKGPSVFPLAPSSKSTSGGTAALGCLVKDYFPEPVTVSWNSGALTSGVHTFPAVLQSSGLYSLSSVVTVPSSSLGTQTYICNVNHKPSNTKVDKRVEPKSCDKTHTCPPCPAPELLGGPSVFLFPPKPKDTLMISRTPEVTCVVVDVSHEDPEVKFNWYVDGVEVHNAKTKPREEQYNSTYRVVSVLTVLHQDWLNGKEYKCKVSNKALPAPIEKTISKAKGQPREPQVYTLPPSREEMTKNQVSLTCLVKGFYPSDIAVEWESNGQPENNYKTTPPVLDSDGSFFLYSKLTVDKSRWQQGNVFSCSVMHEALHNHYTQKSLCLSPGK
light: B1 light
modifications: DGN549-C (compound D5) on the engineered Cys S442C (EU index; 6th to the last residue of SEQ ID NO 142 when X is lysine); average 1.9 mol DGN549/mol antibody
notes: also called huMAB-A(2I.2)-S442C-DGN549

Columns and labels:
[1] = molecular target: T1, cynomolgus monkey ADAM9 (cynoADAM9) on …; assay: FACS, 300-19 cells expressing cynomolgus ADAM9
Description: (§1) To evaluate the consequence of conjugation on antigen binding, the relative binding affinity of each anti-ADAM9 immunoconjugate and its respective unconjugated antibody to ADAM9 was determined by FACS analysis on 300-19 cells ectopically-expressing either human ADAM9 or cynomolgus ADAM9. Briefly, the ADAM9-expressing 300-19 cells were incubated with dilution series of anti-ADAM9 antibodies or immunoconjugates for 30 min @ 4° C. in FACS buffer (PBS, 0.1% BSA, 0.01% NaN₃), Samples were then washed and incubated with fluorescently-labeled secondary antibody for 30 minutes at 4° C. The normalized mean of fluorescence intensity at each concentration was plotted and the EC50 of binding was calculated using a nonlinear regression analysis (GraphPad Prims 4.0).

[2] = molecular target: T2, human ADAM9 (huADAM9) on cells; assay: cell-based or functional assay
[3] = molecular target: T2, human ADAM9 (huADAM9) on cells; assay: FACS, 300-19 cells expressing human ADAM9
Description: as §1

[4] = molecular target: T1, cynomolgus monkey ADAM9 (cynoADAM9) on …; assay: FACS, EC50 on 300-19 cynoADAM9 cells over EC50 on 300-19 huADAM9 cells
Description: as §1

Binder | EC50 [1] [nM] | Fold-specificity (IC50 control ADC/IC50 anti-ADAM9 ADC), A498 [2] [fold] | Fold-specificity (IC50 control ADC/IC50 anti-ADAM9 ADC), DLD-1 [2] [fold] | Fold-specificity (IC50 control ADC/IC50 anti-ADAM9 ADC), DU145 [2] [fold] | Fold-specificity (IC50 control ADC/IC50 anti-ADAM9 ADC), HPAF2 [2] [fold] | Fold-specificity (IC50 control ADC/IC50 anti-ADAM9 ADC), HS578T [2] [fold] | Fold-specificity (IC50 control ADC/IC50 anti-ADAM9 ADC), IGROV1 [2] [fold] | Fold-specificity (IC50 control ADC/IC50 anti-ADAM9 ADC), KATO III [2] [fold] | Fold-specificity (IC50 control ADC/IC50 anti-ADAM9 ADC), NCI-H1703 [2] [fold] | In Vitro Cytotoxicity (IC50 nM), A498 [2] [nM] | In Vitro Cytotoxicity (IC50 nM), DLD-1 [2] [nM] | In Vitro Cytotoxicity (IC50 nM), DU145 [2] [nM] | In Vitro Cytotoxicity (IC50 nM), HPAF2 [2] [nM] | In Vitro Cytotoxicity (IC50 nM), HS578T [2] [nM] | In Vitro Cytotoxicity (IC50 nM), IGROV1 [2] [nM] | In Vitro Cytotoxicity (IC50 nM), KATO III [2] [nM] | In Vitro Cytotoxicity (IC50 nM), NCI-H1703 [2] [nM] | EC50 [3] [nM] | cyno/human (ratio of EC50) [4]
B1 | 4.9 | 30 | 63 | 32 | 13 | 20 | 8 | 11 | 132 | 0.108 | 0.386 | 0.439 | 0.422 | 0.094 | 1.41 | 0.48 | 0.028 | 1.55 | 3
B2 | 13.3 | 27 | 9 | 25 | 9 | 16 | 3 | 5 | 152 | 0.119 | 2.73 | 0.57 | 0.622 | 0.119 | 4.08 | 1.15 | 0.024 | 1.11 | 12
B3 | 6.2 | > 1000 | > 1000 | > 1000 | > 1000 | 646 | > 1000 | > 1000 | > 1000 | 0.004 | 0.045 | 0.004 | 0.115 | 0.017 | 0.003 | 0.065 | 0.004 | 2.49 | 2
